A short description of this data set: yeast display, Sf9 membrane polyspecificity reagent, FACS + sequencing; frameworks hold sequencing errors. In a few lines:
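Genes from sorted yeast were amplified by colony PCR, read by MiSeq 2 × 250 sequencing and filtered on CDR length. These cells carried a synthetic nanobody library in Saccharomyces cerevisiae BJ5465 and were sorted by FACS into low and high (top ~1%) gates on anti-HA and streptavidin fluorescence. Polyreactivity is labelled according to the gate of origin.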
“QVQLVESGGGLVQAGGSLRLICAASGRTFGTNTMGWYRQAPGKERELVATISSSSGSTYYADSVKGRFTISRDNAKNTVYLQMNSLKPEDSAVYYWAALYRWGYKRYDYWGQGTQVTVSS”: the “polyreactivity (PSR sort gate)” value is “high polyreactivity”. Under “QVQLVESGGGLVQAGGSLRLICAASGRTFKDYAMGWNRQAPGKERELVADISWSGGDTYYADSVKGRFTISRDNAKNTVYLQMNSLKPEDTAVYYCAADWSWCDGEDYHFEYDYWGQGTQVTVSS” stands “low polyreactivity”; under “QVQLVESGGGLVQAGGSLRLICAASGRTFLPNAMGWYRQAPGKERELVAVITSAGSTYYADSVKGRFTISRDNAKNTVYLQRNSLKPEDTAVYYCSADYLDYDLGDPPPRYYYWGQGTQVTVSS”, “low polyreactivity”.

Turning to “QVQLVESGGGLVQAGGSLRLICAASGRTFNRYAMGWYRTAPRTERELVAVINSASSTNYADSVKGRFTISRDNAKNTVYLQMYSLKPEDTAVYYCNADGYRWYWYTGPMDYWGQGTKVTVSS”, the “polyreactivity (PSR sort gate)” value is given as “high polyreactivity”. The result for “QVQLVESGGGLVQAGGSLRLICAASGRTFPGYAMGWYRPAPGKDRELVAAISNSGGRTYYADSVKGRFTISRDNAKKTVYLQMTSLKREDTAVYYCNATTDNGSNKRYYYWGQGTQVTVSS” reads “high polyreactivity”; that for “QVQLVESGGGLVQAGGSLRLICAASGRTFRGYTMGWYRQAPGKERELVAAITWSGGSTYYADSVKGRFTISRDNAKNTVYLQMNSLKPEDTAVYYCAATKYLSFLYDYWGQGTLVTVSS”, “high polyreactivity”. The result for “QVQLVESGGGLVQAGGSLRLICAASGRTFRRNAMGWYRQAPGKERELVAGIRSSGGSTYYADSVKGRFTISRDNAKNTVYLQMNSLKTEDTAVYYFAAAYRSASFPYDYWGQGTQVTVSS” reads “high polyreactivity”. The result for “QVQLVESGGGLVQAGGSLRLICAASGRTFTRYAMGWYRQAAGKERELVAAITSTGSTYYADSVKGRFTISRDNAKNTVYLQMNSLKPEDTAVYYCNKVGIRYYYGYDYWGQGTQVTVSS” reads “high polyreactivity”. As to “QVQLVESGGGLVQAGGSLRLICAASGRTFWDYAMGWYRQAPGKERELVAAITASGTRTYYADSVKGRFTISRDNAKNTVFLQMNSLKPEDTAVYYCAAARIWWAHAYPTYVANDYWGQGTQVTVSS”, the “polyreactivity (PSR sort gate)” value is on record as “high polyreactivity”. Under “QVQLVESGGGLVQAGGSLRLICAASGRTFYGYAMGWYRQAPGKERELVAAISTGGGRTYYADSVKGRFTISRDNAKNTVYLQMNSLKPEDTAVYYCAARRAYPHYRVDYWGPGTQVTVSS” stands “high polyreactivity”; under “QVQLVESGGGLVQAGGSLRLICAASGRTFYSKTMGWSRQAPGKEREFVAAIPSIVGSTYYADSVKGRFTISRDNAKITVYFKMNSLKPEDTAVYYCAVTDYYSYQLRYDSSGQGTQVTVSS”, “low polyreactivity”; under “QVQLVESGGGLVQAGGSLRLICAASGRTFYSYAMGWYRQAPGKERELVASISSGGGTNYADSVKGRFTISRDNAKNTVYLQKNSLKPEDTAVYYCDVDPYPYRGYDYWGQGTQVTVSS”, “low polyreactivity”.

For the sequence “QVQLVESGGGLVQAGGSLRLICAASGRTFYVYAMAWYRQEPGKERELVAAISKSGGSTYYADSVKGRFTISRDNAKNSVYLPMNSLKPEDTAGYYCNRYRFVRQVRGGGLPYDYWGQGTQVTVSS”, the “polyreactivity (PSR sort gate)” value is listed as “high polyreactivity”. Under “QVQLVESGGGLVQAGGSLRLICAASGRTIGRNAMRWSRQAPGKERELVAAISSSGGSTYYADSVKGRFTISRDKAKNTVYLQMNSLKPEDTAVYYCNARGWYGLRKYYYWGQGTQVTVSS” stands “high polyreactivity”. The result for “QVQLVESGGGLVQAGGSLRLICAASGRTIRYYAMGWYRQAPGKERELVAAITQNGGRTYYADSVKGRFTISRDNAKNTVYLQMNSLKPEDTAVYYCAKAFIQPGDKYDSWGQGTQVTVSS” reads “high polyreactivity”; that for “QVQLVESGGGLVQAGGSLRLICAASGRTLGYNARGWYRQAPGKETELVAAISYGGGGTYYADSVKGRFTISRDNAKNTVYLQMNSLKPEDTAVYYCAKPRAFVGYNHWGQGTQVTVSS”, “low polyreactivity”; that for “QVQLVESGGGLVQAGGSLRLICAASGRTLSGYAMGWYRQAPGKDRELVAVITSGGSTYYADSVKGRFTISRDNAKNTVYLQMNSLKPEDTAVYYCAARGSRLYSSWRGVYWGQGTQVTVSS”, “high polyreactivity”.

“QVQLVESGGGLVQAGGSLRLICAASGRTSYTYVMGWYRQAPGKERELVAAIRLSGGNTYYADSVKGRFTISRDNAKNTVYLQMNSLKPEDTAVYYCAAQYWRHRKAYGYWGQGSQVTVSS”: the “polyreactivity (PSR sort gate)” value was “high polyreactivity”.

With “QVQLVESGGGLVQAGGSLRLICAASGRTYDKYVMGWYRQAPGKERELVSAISFRGVRTYYADSVKGRFTISRDNAKNTFYLQKNSLKPEDTGVYYCAARFTFSAIIGPYGYWGQGTQVTVSS”, the “polyreactivity (PSR sort gate)” value is reported as “high polyreactivity”. Under “QVQLVESGGGLVQAGGSLRLICAASGSIFAGNAMGWYRQAPGKERELVAAITWSGGSTYYADSVKGRFTISRDNAKNTVYLQMNSLKPEDTAVYYCAAPTQADVVGYDYWGQGTQVTVSS” stands “low polyreactivity”. For “QVQLVESGGGLVQAGGSLRLICAASGSIFDWNAMGWYRQAPGKERELVATISWDGGSTYYADSVKGRFTISRDNAKNTVYLQMNSLKPEDTAVYYCATVFTGKPAYYARTKYDYWGQGTQVNVSS”, the “polyreactivity (PSR sort gate)” value is recorded as “low polyreactivity”.

With “QVQLVESGGGLVQAGGSLRLICAASGSIFFPYDMGWYRQAPGKERELVASITRAGSTNYADSVKGRFTISRDNAKNTVYLQMNSLKPEDTAVYYCAARNYRQFEYGYWGQGTQVTVSS”, the “polyreactivity (PSR sort gate)” value is “low polyreactivity”. Consider “QVQLVESGGGLVQAGGSLRLICAASGSIFGHNAMGWYRQAPGKERELVAAINASDGNTYYADSVKGRFTISRDNAKNTVYLQMNSLKPEDTAVYYCAAEGYFDHYYYYRVYSWGQGTQVTVSS”, for which the “polyreactivity (PSR sort gate)” value is “low polyreactivity”. Under “QVQLVESGGGLVQAGGSLRLICAASGSIFGLYAMGWYRPAPGKEREFVASITYSGGSTYYADSVKGRFTISRDNAKNTVYLQMNSLKPEDTAVYYCAAESYWGYDYWGQGTQVTVSS” stands “high polyreactivity”. The result for “QVQLVESGGGLVQAGGSLRLICAASGSIFGSSAMGWYRQAPGKERSTYYADSVKGRFTISRDNAKNTVYLQMNSLKPEDTAVYYCAADTYGYQGSAGGHWGQGTQVTVSS” reads “low polyreactivity”; that for “QVQLVESGGGLVQAGGSLRLICAASGSIFIGNTMGWYRQAPGKERELVATIRRSGSRTYYADSVKGRFTISRDNAKNTVYLQMNSLKPEDPAVYYCNAEGVGRYSPVSHTFDYWGQGTQVTLSS”, “low polyreactivity”; that for “QVQLVESGGGLVQAGGSLRLICAASGSIFITNAMGWYRQAPGKEREMVAAISGRGGSTYYADSVKGRFTISRDNAKNTVYLQMNSLKPEDTAVYYCNAYSYRVSGYDYWGQGTQVTVSS”, “high polyreactivity”. In the case of “QVQLVESGGGLVQAGGSLRLICAASGSIFITYAMGWSRQAPGKERELVAAIRRGGRTNYADSVKGRFTISRDNAKNTVYLQMNSLKPEDTAVYYCAAEFHTGWPYYPDYAYDYWGQGTQVTVSS”, the “polyreactivity (PSR sort gate)” value was “low polyreactivity”.

For “QVQLVESGGGLVQAGGSLRLICAASGSIFKIYAMGWYRQAPGKERELVARITRRGGRTNYADSVKGRFTISRDNAKNTVYLQINSLKPEDTAVYYCAATVYPSVYGENHYGYWGQGTQVTVSS”, the “polyreactivity (PSR sort gate)” value was “high polyreactivity”. Under “QVQLVESGGGLVQAGGSLRLICAASGSIFLFNAMGWYRQAPGKERQLVAAISKSGGSTHYADSVKGRFTISRDNAKNTVYLQMNSLKPEDSAVYYCAARVGDLGSQKTDSVYRVYYWGQGTQVTVSS” stands “low polyreactivity”; under “QVQLVESGGGLVQAGGSLRLICAASGSIFLLYDMGWYRQAPGKERELVAAITWSGGSTYYADSVKGRFTISRDNAKNTVYLQMNSLKPEDTAVYYCAADEPYPTAYEYWGQGTQVTVSS”, “low polyreactivity”; under “QVQLVESGGGLVQAGGSLRLICAASGSIFLNYAMGWYRQAPGKERELVASLRRIGGRTFYADSVKGSFTISRDNAKNTVYLQMNSLKPEDTAVYYCAAEYYYGLTVEYWGQGTQVTVSS”, “high polyreactivity”. Under “QVQLVESGGGLVQAGGSLRLICAASGSIFPANVMGWYRQAPGKERELVAVISSSGGRTFYADSVKGRFTISRDNAKNTVYLQMNSLKPDDTAVYYCAATIYDYKRALKYYYWGLGTQVTVSS” stands “high polyreactivity”. Under “QVQLVESGGGLVQAGGSLRLICAASGSIFQFYAMGWYRQAPGKERELVAVITTSGVSTYYADSVKGRFTISRDNAKNTDYLQMNSLKPEDTAVYYCAADDYYLAGDYWGQGTQVTVSS” stands “low polyreactivity”; under “QVQLVESGGGLVQAGGSLRLICAASGSIFQPYAMGWYRQAPGKERELVAAINGRGGSTHYADSVKGRFTISRDNAKNTVYLQMNSLKPEDTAVYYCAARYYRDYRWYTYAYDYWGQGTQVTVSS”, “high polyreactivity”.

Take “QVQLVESGGGLVQAGGSLRLICAASGSIFRSYAMGWYRQAPGKERELVAPIDRSGGSTYYADSVKGRLTISRDYAKNTVYCQLNSLKPEDTAVYNSNKTPHFPRPGFNYWGLGTQVTVSS”: the “polyreactivity (PSR sort gate)” value is given as “low polyreactivity”. The result for “QVQLVESGGGLVQAGGSLRLICAASGSIFRYYVKGWYRQAPGKERELVASISYSVGRTYYADSVKGRFTISRDYAKNTVYLQMNSLKPEDTAVYYCAADRYWPYYSAYYTSYRMDYWGQGTQVTVSS” reads “high polyreactivity”; that for “QVQLVESGGGLVQAGGSLRLICAASGSIFSSYAMGWYRQAPGTGRELVASISRRGGSTYYADSVKGRFTISRDNAKNTVYLQMNSLKPEDTAVYYCNASGGPYRYYYWGQGTQVTVSS”, “low polyreactivity”.

Turning to “QVQLVESGGGLVQAGGSLRLICAASGSIFTSNAMGWYRQAPGKERELVAAITSDGAITYADSVKGRFTISRDNAKNTVYLQMNSLKPEDTAVYYCATEIEYYVGSVADMGYWGQGTQVTVSS”, the “polyreactivity (PSR sort gate)” value is “low polyreactivity”. The result for “QVQLVESGGGLVQAGGSLRLICAASGSIFVNNAMGWYRQAPGKERELVAAISRSGGSTYYADSVKGRFTISRDNAKNTVYLQMNSLKPEDTAVYYCATVHRSSTPPEFNYWGQGTQVTVSS” reads “high polyreactivity”.

The values above are taken from the nanobody polyreactivity screen of Harvey et al. (2022).
